Experimental data taken from patent US20110294738A1, “PTHR1 RECEPTOR COMPOUNDS” (priority 2008, published 2011).
* marks the point of attachment. Palmitoyl = CCCCCCCCCCCCCCCC(=O)*

B1: Compound 59 (peptide)
peptide: Palmitoyl-RETNAGRSDTRQQYRKLL-NH2
SMILES: CCCCCCCCCCCCCCCC(=O)N[C@@H](CCCNC(=N)N)C(=O)N[C@@H](CCC(=O)O)C(=O)N[C@H](C(=O)N[C@@H](CC(N)=O)C(=O)N[C@@H](C)C(=O)NCC(=O)N[C@@H](CCCNC(=N)N)C(=O)N[C@@H](CO)C(=O)N[C@@H](CC(=O)O)C(=O)N[C@H](C(=O)N[C@@H](CCCNC(=N)N)C(=O)N[C@@H](CCC(N)=O)C(=O)N[C@@H](CCC(N)=O)C(=O)N[C@@H](Cc1ccc(O)cc1)C(=O)N[C@@H](CCCNC(=N)N)C(=O)N[C@@H](CCCCN)C(=O)N[C@@H](CC(C)C)C(=O)N[C@@H](CC(C)C)C(N)=O)[C@@H](C)O)[C@@H](C)O
B2: Compound 60 (peptide)
peptide: Palmitoyl-RETNAGRSDTRQQYRK-NH2
SMILES: CCCCCCCCCCCCCCCC(=O)N[C@@H](CCCNC(=N)N)C(=O)N[C@@H](CCC(=O)O)C(=O)N[C@H](C(=O)N[C@@H](CC(N)=O)C(=O)N[C@@H](C)C(=O)NCC(=O)N[C@@H](CCCNC(=N)N)C(=O)N[C@@H](CO)C(=O)N[C@@H](CC(=O)O)C(=O)N[C@H](C(=O)N[C@@H](CCCNC(=N)N)C(=O)N[C@@H](CCC(N)=O)C(=O)N[C@@H](CCC(N)=O)C(=O)N[C@@H](Cc1ccc(O)cc1)C(=O)N[C@@H](CCCNC(=N)N)C(=O)N[C@@H](CCCCN)C(N)=O)[C@@H](C)O)[C@@H](C)O
B3: Compound 61 (peptide)
peptide: Palmitoyl-RETNAGRSDTRQQYRF-NH2
SMILES: CCCCCCCCCCCCCCCC(=O)N[C@@H](CCCNC(=N)N)C(=O)N[C@@H](CCC(=O)O)C(=O)N[C@H](C(=O)N[C@@H](CC(N)=O)C(=O)N[C@@H](C)C(=O)NCC(=O)N[C@@H](CCCNC(=N)N)C(=O)N[C@@H](CO)C(=O)N[C@@H](CC(=O)O)C(=O)N[C@H](C(=O)N[C@@H](CCCNC(=N)N)C(=O)N[C@@H](CCC(N)=O)C(=O)N[C@@H](CCC(N)=O)C(=O)N[C@@H](Cc1ccc(O)cc1)C(=O)N[C@@H](CCCNC(=N)N)C(=O)N[C@@H](Cc1ccccc1)C(N)=O)[C@@H](C)O)[C@@H](C)O
B4: Compound 3 (peptide)
peptide: Palmitoyl-LAYFRRLHSTRNY-NH2
SMILES: CCCCCCCCCCCCCCCC(=O)N[C@@H](CC(C)C)C(=O)N[C@@H](C)C(=O)N[C@@H](Cc1ccc(O)cc1)C(=O)N[C@@H](Cc1ccccc1)C(=O)N[C@@H](CCCNC(=N)N)C(=O)N[C@@H](CCCNC(=N)N)C(=O)N[C@@H](CC(C)C)C(=O)N[C@@H](Cc1c[nH]cn1)C(=O)N[C@@H](CO)C(=O)N[C@H](C(=O)N[C@@H](CCCNC(=N)N)C(=O)N[C@@H](CC(N)=O)C(=O)N[C@@H](Cc1ccc(O)cc1)C(N)=O)[C@@H](C)O
B5: Compound 62 (peptide)
peptide: Palmitoyl-RETNAGRSDTRQQY-NH2
SMILES: CCCCCCCCCCCCCCCC(=O)N[C@@H](CCCNC(=N)N)C(=O)N[C@@H](CCC(=O)O)C(=O)N[C@H](C(=O)N[C@@H](CC(N)=O)C(=O)N[C@@H](C)C(=O)NCC(=O)N[C@@H](CCCNC(=N)N)C(=O)N[C@@H](CO)C(=O)N[C@@H](CC(=O)O)C(=O)N[C@H](C(=O)N[C@@H](CCCNC(=N)N)C(=O)N[C@@H](CCC(N)=O)C(=O)N[C@@H](CCC(N)=O)C(=O)N[C@@H](Cc1ccc(O)cc1)C(N)=O)[C@@H](C)O)[C@@H](C)O
B6: Compound 64 (peptide)
peptide: Palmitoyl-TNAGRSDTRQQYRKLLKS-NH2
SMILES: CCCCCCCCCCCCCCCC(=O)N[C@H](C(=O)N[C@@H](CC(N)=O)C(=O)N[C@@H](C)C(=O)NCC(=O)N[C@@H](CCCNC(=N)N)C(=O)N[C@@H](CO)C(=O)N[C@@H](CC(=O)O)C(=O)N[C@H](C(=O)N[C@@H](CCCNC(=N)N)C(=O)N[C@@H](CCC(N)=O)C(=O)N[C@@H](CCC(N)=O)C(=O)N[C@@H](Cc1ccc(O)cc1)C(=O)N[C@@H](CCCNC(=N)N)C(=O)N[C@@H](CCCCN)C(=O)N[C@@H](CC(C)C)C(=O)N[C@@H](CC(C)C)C(=O)N[C@@H](CCCCN)C(=O)N[C@@H](CO)C(N)=O)[C@@H](C)O)[C@@H](C)O
B7: Compound 65 (peptide)
peptide: Palmitoyl-AGRSDTRQQYRKLLKS-NH2
SMILES: CCCCCCCCCCCCCCCC(=O)N[C@@H](C)C(=O)NCC(=O)N[C@@H](CCCNC(=N)N)C(=O)N[C@@H](CO)C(=O)N[C@@H](CC(=O)O)C(=O)N[C@H](C(=O)N[C@@H](CCCNC(=N)N)C(=O)N[C@@H](CCC(N)=O)C(=O)N[C@@H](CCC(N)=O)C(=O)N[C@@H](Cc1ccc(O)cc1)C(=O)N[C@@H](CCCNC(=N)N)C(=O)N[C@@H](CCCCN)C(=O)N[C@@H](CC(C)C)C(=O)N[C@@H](CC(C)C)C(=O)N[C@@H](CCCCN)C(=O)N[C@@H](CO)C(N)=O)[C@@H](C)O
B8: Compound 66 (peptide)
peptide: Palmitoyl-RSDTRQQYRKLLKS-NH2
SMILES: CCCCCCCCCCCCCCCC(=O)N[C@@H](CCCNC(=N)N)C(=O)N[C@@H](CO)C(=O)N[C@@H](CC(=O)O)C(=O)N[C@H](C(=O)N[C@@H](CCCNC(=N)N)C(=O)N[C@@H](CCC(N)=O)C(=O)N[C@@H](CCC(N)=O)C(=O)N[C@@H](Cc1ccc(O)cc1)C(=O)N[C@@H](CCCNC(=N)N)C(=O)N[C@@H](CCCCN)C(=O)N[C@@H](CC(C)C)C(=O)N[C@@H](CC(C)C)C(=O)N[C@@H](CCCCN)C(=O)N[C@@H](CO)C(N)=O)[C@@H](C)O
B9: Compound 67 (peptide)
peptide: Palmitoyl-DTRQQYRKLLKS-NH2
SMILES: CCCCCCCCCCCCCCCC(=O)N[C@@H](CC(=O)O)C(=O)N[C@H](C(=O)N[C@@H](CCCNC(=N)N)C(=O)N[C@@H](CCC(N)=O)C(=O)N[C@@H](CCC(N)=O)C(=O)N[C@@H](Cc1ccc(O)cc1)C(=O)N[C@@H](CCCNC(=N)N)C(=O)N[C@@H](CCCCN)C(=O)N[C@@H](CC(C)C)C(=O)N[C@@H](CC(C)C)C(=O)N[C@@H](CCCCN)C(=O)N[C@@H](CO)C(N)=O)[C@@H](C)O
B10: Compound 68 (peptide)
peptide: Palmitoyl-TNAGRSDTRQQYRKLL-NH2
SMILES: CCCCCCCCCCCCCCCC(=O)N[C@H](C(=O)N[C@@H](CC(N)=O)C(=O)N[C@@H](C)C(=O)NCC(=O)N[C@@H](CCCNC(=N)N)C(=O)N[C@@H](CO)C(=O)N[C@@H](CC(=O)O)C(=O)N[C@H](C(=O)N[C@@H](CCCNC(=N)N)C(=O)N[C@@H](CCC(N)=O)C(=O)N[C@@H](CCC(N)=O)C(=O)N[C@@H](Cc1ccc(O)cc1)C(=O)N[C@@H](CCCNC(=N)N)C(=O)N[C@@H](CCCCN)C(=O)N[C@@H](CC(C)C)C(=O)N[C@@H](CC(C)C)C(N)=O)[C@@H](C)O)[C@@H](C)O
B11: Compound 69 (peptide)
peptide: Palmitoyl-TNAGRSDTRQQYRK-NH2
SMILES: CCCCCCCCCCCCCCCC(=O)N[C@H](C(=O)N[C@@H](CC(N)=O)C(=O)N[C@@H](C)C(=O)NCC(=O)N[C@@H](CCCNC(=N)N)C(=O)N[C@@H](CO)C(=O)N[C@@H](CC(=O)O)C(=O)N[C@H](C(=O)N[C@@H](CCCNC(=N)N)C(=O)N[C@@H](CCC(N)=O)C(=O)N[C@@H](CCC(N)=O)C(=O)N[C@@H](Cc1ccc(O)cc1)C(=O)N[C@@H](CCCNC(=N)N)C(=O)N[C@@H](CCCCN)C(N)=O)[C@@H](C)O)[C@@H](C)O
B12: Compound 70 (peptide)
peptide: Palmitoyl-TNAGRSDTRQQYRF-NH2
SMILES: CCCCCCCCCCCCCCCC(=O)N[C@H](C(=O)N[C@@H](CC(N)=O)C(=O)N[C@@H](C)C(=O)NCC(=O)N[C@@H](CCCNC(=N)N)C(=O)N[C@@H](CO)C(=O)N[C@@H](CC(=O)O)C(=O)N[C@H](C(=O)N[C@@H](CCCNC(=N)N)C(=O)N[C@@H](CCC(N)=O)C(=O)N[C@@H](CCC(N)=O)C(=O)N[C@@H](Cc1ccc(O)cc1)C(=O)N[C@@H](CCCNC(=N)N)C(=O)N[C@@H](Cc1ccccc1)C(N)=O)[C@@H](C)O)[C@@H](C)O
B13: Compound 71 (peptide)
peptide: Palmitoyl-SGRVLATKLR-NH2
SMILES: CCCCCCCCCCCCCCCC(=O)N[C@@H](CO)C(=O)NCC(=O)N[C@@H](CCCNC(=N)N)C(=O)N[C@H](C(=O)N[C@@H](CC(C)C)C(=O)N[C@@H](C)C(=O)N[C@H](C(=O)N[C@@H](CCCCN)C(=O)N[C@@H](CC(C)C)C(=O)N[C@@H](CCCNC(=N)N)C(N)=O)[C@@H](C)O)C(C)C

How the values were obtained:
PTHR1 = target: T1, PTHR1 (Rattus norvegicus, UniProt P25961); assay: cAMP screening assay using DiscoveRX XS+ kit (PTH1-34 dose-response in UMR-106 cells); conditions: compound 10 μM
T1 sequence (P25961 27-591): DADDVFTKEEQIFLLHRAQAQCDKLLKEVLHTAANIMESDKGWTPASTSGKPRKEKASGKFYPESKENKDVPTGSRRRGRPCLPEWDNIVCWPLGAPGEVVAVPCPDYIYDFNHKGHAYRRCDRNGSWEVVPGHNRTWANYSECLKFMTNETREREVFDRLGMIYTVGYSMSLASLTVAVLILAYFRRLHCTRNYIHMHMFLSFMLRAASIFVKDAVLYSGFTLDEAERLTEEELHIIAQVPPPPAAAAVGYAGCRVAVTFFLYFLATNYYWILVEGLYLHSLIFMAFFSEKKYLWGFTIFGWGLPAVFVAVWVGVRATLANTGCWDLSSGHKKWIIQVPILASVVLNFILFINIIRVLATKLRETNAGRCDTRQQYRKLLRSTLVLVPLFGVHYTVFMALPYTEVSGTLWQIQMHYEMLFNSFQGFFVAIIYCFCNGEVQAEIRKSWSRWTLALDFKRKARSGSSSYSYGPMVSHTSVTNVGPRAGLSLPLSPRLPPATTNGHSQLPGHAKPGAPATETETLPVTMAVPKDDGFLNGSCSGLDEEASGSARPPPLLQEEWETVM
Experimental: cAMP Screening Assay Using DiscoveRX XS+ Kit
UMR-106 cells were seeded in 96-well white plates at 10K cells/well in growth media. Twenty four hours after seeding, cell media was removed by gentle dumping and replaced with 30 μL of compounds diluted to 10 μM final concentration in assay buffer (Hank's balanced Salt Solution, 20 mM HEPES, pH 7.4, 0.1 μM IBMX). After 30 minute incubation at room temperature, 10 μL human PTH1-34 serial diluted in assay buffer was added. Cells were incubated at 37° C. for 15 minutes before 10 μL of water soluble analog of forskolin, NKH477 was added to final concentration of 10 μM followed by 60 minute incubation at room temperature. DiscoveRX cAMP XS+ kit reagents were then added following manufacture protocol. Briefly, 10 μL of antibody was added to each well followed by 40 μL of ED/Lysis buffer mix (1/5/19 for Galacon-star/Emerald/Lysis buffer and then 1:1 with ED). After 1 hour incubation, 40 μL of EA reagent was added followed by at least 1 hour incubation before the plates were read on TopCount reader. Data was analyzed using GraphPad Prism. PTH1-34 dose-response curves were fitted using non-linear curve fit (Y=Bottom+(Top−Bottom)/(1+10̂((Log EC50−X)*HillSlope))). PTH1-34 EC50 values calculated in the presence of compounds were compared to that in the presence of vehicle control. The ratio of the EC50 values were calculated and presented as fold shift (EC50 compound/EC50 vehicle). The effect of compounds on PTH1-34 stimulated maximal response was also assessed and was presented percent inhibition (1−(Emax compound/Emax vehicle)).

Chain of PTHR1 receptor (P25961 whole entry): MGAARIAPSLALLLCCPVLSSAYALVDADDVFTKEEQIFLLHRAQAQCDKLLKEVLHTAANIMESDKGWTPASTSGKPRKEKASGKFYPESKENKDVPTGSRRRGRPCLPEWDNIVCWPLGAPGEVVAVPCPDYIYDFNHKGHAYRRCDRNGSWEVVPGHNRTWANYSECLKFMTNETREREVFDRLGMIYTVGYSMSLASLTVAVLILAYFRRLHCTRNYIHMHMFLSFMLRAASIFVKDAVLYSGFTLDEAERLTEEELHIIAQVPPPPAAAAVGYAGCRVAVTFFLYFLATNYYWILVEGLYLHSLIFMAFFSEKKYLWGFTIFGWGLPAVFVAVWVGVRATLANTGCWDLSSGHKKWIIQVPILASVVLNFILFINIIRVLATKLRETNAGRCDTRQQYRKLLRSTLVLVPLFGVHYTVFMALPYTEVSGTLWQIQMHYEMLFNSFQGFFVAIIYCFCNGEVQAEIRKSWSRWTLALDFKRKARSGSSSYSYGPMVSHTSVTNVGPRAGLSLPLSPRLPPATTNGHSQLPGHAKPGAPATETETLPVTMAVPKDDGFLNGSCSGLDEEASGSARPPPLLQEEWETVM

Row | Molecule | Fold Shift of EC50 (PTHR1; PTH1-34 EC50 compound/EC50 vehicle) | Inhibition of Maximal Response (PTHR1; PTH1-34 stimulated maximal response, 1−(Emax compound/Emax vehicle)) | Fold Shift of EC50 (PTHR1 receptor) | Inhibition of Maximal Response (PTHR1 receptor)
1 | LYLHSLIFMSFFSEKK [Compound 40] | 1.5 | 28.30% |  | 
2 | B1 |  |  | 5.2 fold | 3%
3 | B2 |  |  | 3.3 fold | 4.3%
4 | B3 |  |  | 0.7 fold | -47.6%
5 | B4 |  |  | 0.7 fold | -51.4%
6 | B5 |  |  | 1.1 fold | -5.4%
7 | B6 |  |  | 7 fold | -0.1%
8 | B7 |  |  | 14.7 fold | -0.359
9 | B8 |  |  | 16.4 fold | -39%
10 | B9 |  |  | 6 fold | 6.9%
11 | B10 |  |  | 12.4 fold | -0.0684
12 | B11 |  |  | 5.2 fold | 2.5%
13 | B12 |  |  | 2 fold | 15.1%
14 | B13 |  |  | 0.8 fold | 13.5%
